The values that follow come from PMC4601027 (2015).

Non-standard residues stand in square brackets, D forms with d. No end group written: not given here. pS = N[C@@H](COP(=O)(O)O)C(=O)O

The chains are these.
B1: Pin1 WW domain (domain or fragment)
chain: MADEEKLPPGWEKRMSRSSGRVYYFNHITNASQWERPSGNS

Among the targets are CPEB1 pS184 peptide (UniProt Q9BZB8, phosphoserine at 184); CPEB1 pS423 peptide (UniProt Q9BZB8, phosphoserine at 423); CPEB1 pS144 peptide (UniProt Q9BZB8, phosphoserine at 144); CPEB1 pS138 peptide (UniProt Q9BZB8, phosphoserine at 138); CPEB1 pS248 peptide (UniProt Q9BZB8, phosphoserine at 248); full-length Pin1 (UniProt Q13526 1-163).
Common to all, as to assay: ITC
Background: ITC needs no label: the signal is the heat of the interaction.

The experiment “Pin1 WW domain” addresses B1.

Chain of full-length Pin1 (Q13526 whole entry): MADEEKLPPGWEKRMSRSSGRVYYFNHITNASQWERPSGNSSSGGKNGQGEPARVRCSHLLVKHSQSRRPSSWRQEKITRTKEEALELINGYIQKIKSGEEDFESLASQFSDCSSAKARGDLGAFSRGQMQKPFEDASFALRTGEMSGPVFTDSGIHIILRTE

As a reminder, the Kd is the constant that tells how readily two partners part at equilibrium. A higher Kd goes with weaker binding. As to B1, the Kd with CPEB1 pS184 peptide is 28.6 µM; with CPEB1 pS423 peptide, 158 µM; in the experiment with CPEB1 pS144 peptide, 75.4 µM; with CPEB1 pS138 peptide, 71.3 µM; with CPEB1 pS248 peptide it was 47.6 µM.
In the case of RI[pS]PPLPF-NH2 [CPEB1 pS210 peptide], the values for the Kd with full-length Pin1 and with Pin1 WW domain were 32.3 µM and 30.3 µM, respectively.
